Consider one molecule from patent US20110257086A1 (Johns Hopkins, published 2011).

What all share (experiment): cell-based or functional assay
Assay [1] deals with PCAF HAT.
The target of assay [2] is T1, ghrelin O-acyltransferase (GOAT) endogenous in human cell lines (HEL, Kato III, AGS) (human, UniProt Q96T53 1-435).
T1 sequence: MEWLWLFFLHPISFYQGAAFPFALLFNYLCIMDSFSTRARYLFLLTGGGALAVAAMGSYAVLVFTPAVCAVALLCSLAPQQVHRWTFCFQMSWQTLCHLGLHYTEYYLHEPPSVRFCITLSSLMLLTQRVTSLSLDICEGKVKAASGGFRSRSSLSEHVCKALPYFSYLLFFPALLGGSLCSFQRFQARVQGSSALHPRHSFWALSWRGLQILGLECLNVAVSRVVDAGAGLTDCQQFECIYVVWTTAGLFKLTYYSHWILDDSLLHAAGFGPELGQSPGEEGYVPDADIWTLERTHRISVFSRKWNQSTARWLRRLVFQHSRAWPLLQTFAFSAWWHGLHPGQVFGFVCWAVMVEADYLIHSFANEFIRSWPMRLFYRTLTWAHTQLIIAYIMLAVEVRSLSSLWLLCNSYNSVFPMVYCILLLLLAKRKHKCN

The target of assay [3] is serotonin N-acetyltransferase.
For assay [4], the target named is p300 HAT.

B1: GO-CoA-Tat (Compound 1 of FIG. 1C), bisubstrate analog inhibitor of ghrelin O-acyltransferase (peptide)
peptide: GSSFLSPEHQYGRKKRRQRRR
modifications: Ser3 of ghrelin replaced with 1,2-diaminopropionic acid (Dap), whose side-chain amine carries an octanoyl group conjugated at its alpha carbon to coenzyme A; amino-hexanoyl (Ahx) linker between ghrelin residue 10 and the Tat peptide
Take B1: the “inhibition of acetyltransferase activity at 10 µM GO-CoA-Tat (alpha-KGDH coupled spectrophotometric assay)” value in assay [1], in assay [3] and in assay [4] was less than 15 % inhibition in each case. Further, the “IC50 of reduction of acyl-ghrelin levels in cell lysates (HEL, Kato III, AGS cells)” value in assay [2] lay in the range of 1000 to 2000 nM.
